B1: TPR t1 (parent)
chain: GACCAAUCUGCCCUCAGAGCUCGAGAACAUCUUCGGAUGCAGAGGAGGCAGGCUUCGGUGGCGCGAUAGCGCCAACGUCCUCAACCUCCAAUGCAUCCCACCACAUGAUGAUGCCUGAAGAGCCUUGGUUUUUUG

Variants of: B1
Assay: polymerase ribozyme fitness, log enrichment relative to wild type (log ratio); higher = more active; in vitro selection for triplet polymerase activity
Outline: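 A single round of triplicate in vitro selection, including frozen incubation at −7 °C, was applied to PCR-built, transcribed mutant libraries of each subunit of a heterodimeric triplet polymerase ribozyme. Illumina sequencing of input and output libraries retained genotypes with ≥10 input reads and ≥1 read per output. Fitness is the base-2 logarithm of genotype enrichment divided by wild-type enrichment, from inverse-variance-weighted replicate averages.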

Row | Variant | polymerase ribozyme fitness (log ratio)
1 | C13U C73U C124U G127A | 0.275
2 | U14A A26U | -5.1
3 | C13U A27U C72A U130A | -2.6
4 | U14G A95G | -2.23
5 | U14G A95U | -2.44
6 | U14A G19A G42U A43C C70A | -6.34
7 | C13U A37C U55A | -0.3
8 | U14C G48U C72G | -2.66
9 | C15A G120U | -1.44
10 | C15A G120C | -0.2
11 | C13U A91U | -0.839
12 | U14G C114U U132A | -7.19
13 | C13U G58A C73U | -0.277
14 | C15G C56G U87G U112G G113A C123G G135A | -3.08
15 | C13U G19A G77C U81C | -3.54
16 | C15G C49G G61A C85A G110A | -3.95
17 | C13U G110A | -0.303
18 | C13U G51U G61A C88U U106A | -2.6
19 | U14C G44A A46U A75G A95U | -3.28
20 | C15A C53G C102U | -4.5
21 | U14A C70G | -3.97

Row | Variant | polymerase ribozyme fitness (log ratio)
22 | U14G C62U U78C | -2.77
23 | C13U G45U A84G A121U | 0.667
24 | C15A A41C C104U | -2.15
25 | C13U C76U | -0.121
26 | C13U C28G C101A C104A | -5.64
27 | C13U G44A C79G G93U | -4.32
28 | C13G G44U C82A | -3.4
29 | C15A G39U C40U C64U G93C | -4.09
30 | C15A G71U C104A | -4.07
31 | U14G G44C C80U | -3.74
32 | C15G A50U | -3.73
33 | C13U A108U | -4.78
34 | C13G G42U C49U G61U U130A | -4.93
35 | U14G U21G C40A G48C U106A | -5.19
36 | C15A G61U | -0.806
37 | C13U G60A C82A U131G | -0.416
38 | C13U C53A U54C G120C | 1.15
39 | C13U C22G C49U G71C C102U G122A | -5.74
40 | C13U G45U C82U | -0.895
41 | U14G G63A | -2.49
42 | U14G C101G | -3.2

Row | Variant | polymerase ribozyme fitness (log ratio)
43 | U14G C49G | -2.23
44 | C13U C40U A43U C72G A84G C89G | -6.24
45 | C13G U54C C85U U87C | -1.99
46 | C15A C56U U59C C64U A84U C98G G110A | -7.69
47 | U14C G63C U112G G113U | -5.75
48 | C13U A43G G60A | -1.39
49 | U14C G44U | -3.05
50 | C13G G120U | -0.586
51 | C13G G120C | 0.441
52 | C13U A121G | 2.04
53 | C13U A121U | 2.03
54 | U14A C49G | -2.67
55 | C15G C73A | -2.02
56 | C13G G44A G48C U55G C79U C124G | -0.404
57 | C15A U54G A90U | -3.13
58 | C13U G61C G93U U132C | -2.93
59 | C15A G47U C64U C123U | -2.43
60 | C15A G120C U129A | -1.24
61 | U14G G45A A121U | 0.629
62 | C15A G60U | -2.01
63 | C13U A26U | -3.03

Row | Variant | polymerase ribozyme fitness (log ratio)
64 | C15G C97U C124U | -1.59
65 | C15A U21A U78A G93U | -2.36
66 | U14G G45A C102U | -5.41
67 | C15A A41C | -3.59
68 | U14A A24C C49G C72U U92C G113U U116A | -6.78
69 | C13U C34U C40U A50G U59C | -5.78
70 | C13U C28G C34G C49A C76A A100C U109A C123G | -6.13
71 | U14G C53A A84C | -2.21
72 | U14A C56U C73U U112G G120C | -1.15
73 | U14G | -1.56
74 | U14A | -1.85
75 | U14C | -1.23
76 | C13U A18U | -0.945
77 | C13U A27U G42U C64G A100C G120C C123G | -7.95
78 | C13U C99U U133G | -2.46
79 | C13G G48C G63U A105C | -5.9
80 | C13G G110A | -1.87
81 | C13U A37C C53G G128C | -1.48
82 | C15A G47U G127C | -5.43
83 | C15A C62A C76U U96G C115U | -6.47
84 | U14A G63A G93A | -4.67

Source: the RNAGym collection of RNA variant scans (doi:10.1073/pnas.2313332121)
